T1: CD19 (Biacore ligand coupled to the chip) (UniProt P15391 20-291, limits assumed)
T1 construct: also called 配体:CD19
T1 sequence (looked up): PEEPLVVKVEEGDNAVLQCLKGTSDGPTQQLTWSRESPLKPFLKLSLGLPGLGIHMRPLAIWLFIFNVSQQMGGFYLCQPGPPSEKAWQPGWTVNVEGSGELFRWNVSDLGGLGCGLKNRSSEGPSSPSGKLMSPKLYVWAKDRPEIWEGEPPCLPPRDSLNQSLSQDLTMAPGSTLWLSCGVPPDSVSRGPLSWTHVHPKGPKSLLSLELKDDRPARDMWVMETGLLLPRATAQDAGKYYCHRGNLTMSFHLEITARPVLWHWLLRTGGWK

B1: HM1711091-T4L2H2 (antibody, V domains shown)
VH: QVTLRESGPALVKPTQTLTLTCTFSGVSLPDYGVSWIRQPPGKALEWLAVIWGSETTYYNSALKSRLTISKDTSKNQVVLTMTNMDPVDTATYYCAKHYYYGGSYAMDYWGQGTTVTVSS
VL: EIVLTQSPATLSLSPGERATLSCRASQDISKYLNWYQQKPGQAPRLLIYHTSRLHSGIPDRFSGSGSGTDFTLTISRLEPEDIAVYYCQQGNTLPYTFGQGTKLEI
notes: Full antibody (全抗) used in the Biacore assay; also called 人源化单抗T4L2H2; 人源化T4L2H2抗体
B2: HM1711091-T1L1H4 (antibody, V domains shown)
VH: QVQLQESGPGLVAPSETLSLTCTVSGVSLPDYGVSWIRQPPRKGLEWIGVIWGSETTYYNSALKSRVTISVDTSKNQFSLKLSSVTAADTAVYYCAKHYYYGGSYAMDYWGQGTLVTVSS
VL: DIQMTQSPSSLSASVGDRVTITCRASQDISKYLNWYQQKPGKAPKLLIYHTSRLHSGVPSRFSGSGSGTDFTFTISSLQPEDIATYYCQQGNTLPYTFGGGTKVEI
notes: Full antibody (全抗) used in the Biacore assay; also called 人源化单抗T1L1H4; 人源化T1L1H4抗体

Biological target: T1, CD19 (Biacore ligand coupled to the …)
Assay: Biacore SPR, CD19 coupled to chip, antibody as analyte 3.125-100 ug/ml

Binder	Kd [nM]	koff [s⁻¹]	kon [M⁻¹ s⁻¹]
B1	28.4	0.0028	98600
B2	15.9	0.00441	278000

Reference: patent CN109879966A (PERSONGEN BIOMEDICINE SUZHOU CO LTD, dated 2019)
